Patent US20210155689A1 (SHANGHAI PHARMAEXPLORER, published 2021)

T1: human LAG-3 (full length, on the cell surface) (human, UniProt P18627 23-525)
T1 construct: Full-length human LAG-3 expressed on cells; also called HEK293-hLAG-3; HEK293 cells transfected with LAG-3 gene
T1 sequence: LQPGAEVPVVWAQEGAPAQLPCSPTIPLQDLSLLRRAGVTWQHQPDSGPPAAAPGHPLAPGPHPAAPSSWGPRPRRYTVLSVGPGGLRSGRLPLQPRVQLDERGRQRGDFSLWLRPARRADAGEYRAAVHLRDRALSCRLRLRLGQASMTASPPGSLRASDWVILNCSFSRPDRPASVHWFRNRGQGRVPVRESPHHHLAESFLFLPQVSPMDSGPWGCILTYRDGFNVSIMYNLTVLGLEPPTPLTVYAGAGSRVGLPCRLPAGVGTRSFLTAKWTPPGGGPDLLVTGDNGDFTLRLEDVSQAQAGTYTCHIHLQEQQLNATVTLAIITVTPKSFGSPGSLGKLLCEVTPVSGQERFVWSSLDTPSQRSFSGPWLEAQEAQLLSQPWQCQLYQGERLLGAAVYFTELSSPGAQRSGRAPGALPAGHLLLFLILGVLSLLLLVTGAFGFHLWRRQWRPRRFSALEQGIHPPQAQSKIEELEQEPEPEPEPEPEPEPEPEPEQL

T2: human LAG-3 protein with hFc tag (hLAG-3-hFc protein) (human, UniProt P18627 23-450)
T2 construct: also called immunogen 1; LAG-3 extracellular domain protein; not shown: human IgG Fc fragment (hFc) of the pCpC vector
T2 sequence: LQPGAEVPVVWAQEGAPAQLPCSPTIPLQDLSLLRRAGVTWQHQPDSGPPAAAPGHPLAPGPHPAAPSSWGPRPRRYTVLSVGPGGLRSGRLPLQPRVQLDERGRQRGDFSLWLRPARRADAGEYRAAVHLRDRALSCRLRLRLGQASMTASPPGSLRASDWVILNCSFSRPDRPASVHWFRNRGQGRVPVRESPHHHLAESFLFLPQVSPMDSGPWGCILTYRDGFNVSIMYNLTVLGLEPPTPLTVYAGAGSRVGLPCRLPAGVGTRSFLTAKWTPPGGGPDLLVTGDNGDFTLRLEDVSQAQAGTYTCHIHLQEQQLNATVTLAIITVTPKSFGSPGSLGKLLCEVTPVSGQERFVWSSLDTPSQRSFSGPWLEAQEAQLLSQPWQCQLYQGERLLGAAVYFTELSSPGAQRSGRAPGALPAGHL

T3: hFc tagged monkey LAG-3 protein (cLAG-3-hFc protein) (monkey; human)
T3 construct: Made in HEK293 cells; also called monkey LAG-3 extracellular domain protein; not shown: human IgG Fc fragment (hFc) of the pCpC vector
T3 chain: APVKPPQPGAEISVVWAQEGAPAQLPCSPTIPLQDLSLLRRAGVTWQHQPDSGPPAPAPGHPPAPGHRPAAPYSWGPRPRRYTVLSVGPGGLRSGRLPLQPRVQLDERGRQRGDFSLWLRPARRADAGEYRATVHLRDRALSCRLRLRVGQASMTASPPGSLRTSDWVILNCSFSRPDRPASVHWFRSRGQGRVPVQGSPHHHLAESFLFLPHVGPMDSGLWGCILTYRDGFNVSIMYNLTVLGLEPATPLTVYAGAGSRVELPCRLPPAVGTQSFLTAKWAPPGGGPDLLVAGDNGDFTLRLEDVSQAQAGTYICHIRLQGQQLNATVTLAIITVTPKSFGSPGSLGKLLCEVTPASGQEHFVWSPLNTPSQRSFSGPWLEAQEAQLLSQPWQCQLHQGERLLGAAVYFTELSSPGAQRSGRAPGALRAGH


Columns and labels:
[1] = target: T1, human LAG-3 (full length, on the cell …); assay: FACS, HEK293-hLAG-3; 8.000 nM
Description: The pIRES plasmid with the monkey-derived full-length gene was transfected into the HEK293 cell line to construct a HEK293 stable cell line containing monkey LAG-3 (herein referred to as HEK293-cLAG-3 stable cell line). The HEK293-hLAG-3 stable cell line and HEK293-cLAG-3 stable cell line were expanded in a T-75 cell culture flask to a 90% confluence. The medium was aspirated, and the cells were washed with HBSS (Hanks' Balanced Salt Solution) 1-2 times, then treated with a enzyme-free cell dissociation fluid (Versene solution: Life technology) and the cells were collected. The cells were washed with HBSS buffer for 1-2 times. After counted, the cells were diluted with HBSS to 1-2×10⁶ cells per ml, added with 1% goat serum blocking solution, incubated on ice for 20-30 minutes, and then washed with HBSS for 2 times by centrifugation. The collected cells were suspended in the FACS buffer (HBSS+1% BSA) to 2×10⁶ cells/ml, added as 100 microliters per well to a 96-well FACS reaction plate, added with 100 microliters per well of the antibody sample to be tested, incubated on ice for 1-2 hours. The plate was washed twice with the FACS buffer by centrifugation, added with 100 microliters of fluorescent (Alexa 488)-labeled secondary antibodies per well, and incubated on ice for 0.5-1.0 hours. The plate was washed 2-3 times with FACS buffer by centrifugation, added with 100 μl fixative solution (4% Paraformaldehyde) per well to suspend the cells. 5-10 minutes later, it was washed 1-2 times with FACS buffer by centrifugation. The cells were suspended with 100 microliters of FACS buffer, FACS (FACSCalibur, BD) was used for detection and the results were analyzed.

[2] = target: T2, human LAG-3 protein with hFc tag …; assay: FACS, blocks LAG-3-hFc binding to MHC II on Raji; 0.823 nM
Experimental: The FACS reaction plate incubating the Raji cells was centrifuged to discard the supernatant. The above mixture was added as 100 μl per well to Raji cells and incubated on ice for 1-2 hours. The plate was washed twice with blocking solution (PBS, 2% fetal bovine serum) by centrifugation, added with 100 microliters of fluorescent (Alexa 488)-labeled secondary antibodies per well, and incubated on ice for 1.0 hours. The plate was washed 2-3 times by centrifugation with blocking solution (PBS, 2% fetal bovine serum), added with 100 microliters of PBS per well to suspend cells, and detected using FACS (FACS Calibur, BD) and the results were analyzed. Wherein, the IgG control was murine IgG, and the data in the table is the inhibition rate (%).

[3] = target: T3, hFc tagged monkey LAG-3 protein …; assay: ELISA, cLAG-3-hFc coated; 0.0000 nM
Experimental: The plate was sealed with plastic film and incubated overnight at 4° C. The plate was washed 2 times with the plate washing solution (PBS+0.01% Tween20) on the next day, and added with the blocking solution (PBS+0.01% Tween20+1% BSA) and blocked at room temperature for 1-2 hours. The blocking solution was poured out, and the plate was added with 50-100 μl of the antibody sample to be tested to each well, incubated at 37° C. for 1-2 hours, and washed 2-3 times with a plate washing solution (PBS+0.01% Tween20). HRP (horseradish peroxidase) labeled secondary antibody was added, and the plate was incubated at 37° C. for 1-2 hours, and washed 2-3 times with a plate washing solution (PBS+0.01% Tween20). 100 μl of TMB substrate was added to each well. After incubated at room temperature for 15-30 minutes, the plate was added with 100 μl of stop solution (1.0N HCl) to each well.

| Binder | Mean fluorescence intensity [1] [MFI] | Inhibition rate (%) [2] [%] | OD450 [3] [OD450] |
| --- | --- | --- | --- |
| 556F6B8 (mouse antibody purified from hybridoma) (antibody, V domains shown, also called mAb123-556F6B8) VH: RVQLKQSGPGLVQPSQSLSITCTVSGFSLIKYGVHWVRQSPGEGLEWLGVIWRGGITDYNAAFMSRLSITKDNSKSQVFFKMNSLQADDTAIYYCAKWDGPLAMDYWGQGTSVTVSS VL: DIVMTQSHKFLSTSVGDRVSITCKASQDVGTTVAWYQQKPGQSPKLLIYWASTRHTGVPDRFTGSGSGTDFTLTISNVQSEDLADYFCQQYSSYPYTFGGGTKLEIK | 74.9 | 20.1 | – |
| 556F6B8 (LAG-3 mouse-human chimeric antibody) (antibody, V domains shown, also called 556F8B8) VH: RVQLKQSGPGLVQPSQSLSITCTVSGFSLIKYGVHWVRQSPGEGLEWLGVIWRGGITDYNAAFMSRLSITKDNSKSQVFFKMNSLQADDTAIYYCAKWDGPLAMDYWGQGTSVTVSS VL: DIVMTQSHKFLSTSVGDRVSITCKASQDVGTTVAWYQQKPGQSPKLLIYWASTRHTGVPDRFTGSGSGTDFTLTISNVQSEDLADYFCQQYSSYPYTFGGGTKLEIK | – | – | 0.19 |
| 405B8H3 (mouse antibody purified from hybridoma) (antibody, V domains shown, also called mAb103-405B8H3; 405B81-13) VH: QVQLQQSGAELVRPGASVTLSCKASGYTFTDYEMHWVKQTPVHGLEWIGATDPETGNSAYNQKFKGKAIMTADKSSSTAYMELRSLTSEDSAVYYCISTGWNDWGQGTSLTVSS VL: DIKMTQSPSSMYASLGERVTITCKASQDINSYLSWFQQKPGKSPKTLIYRADRLLDGVPSRFSGSGSGQDYSLTISSLEYGDMGIYYCLQYDEFPYTFGGGTKLEIK | 252 | 10.9 | – |
| 105F1E10 (LAG-3 mouse-human chimeric antibody) (antibody, V domains shown) VH: EVQLQQSGPELVKPGASVKMSCRASGYTFTDFKMHWMKQSHGKSLEWIGYIAPNNGGTAYNQKFRGKATLTVNESSNTAYMELRSLTSEDSAVYYCVDWDDVDYWGQGTTLTVSS VL: DIKMTQSPSSMYASLGERVTITCKASQDINSYLSWFQQKSGKSPKTLIYRANRLVDGVPSRFSGSGSGQDYSLTISSLEYEDMGIYYCLQYVEFPLTFGAGTKLELK | – | – | 0.15 |
| 105F1E10 (mouse antibody purified from hybridoma) (antibody, V domains shown, also called mAb009-105F1E10) VH: EVQLQQSGPELVKPGASVKMSCRASGYTFTDFKMHWMKQSHGKSLEWIGYIAPNNGGTAYNQKFRGKATLTVNESSNTAYMELRSLTSEDSAVYYCVDWDDVDYWGQGTTLTVSS VL: DIKMTQSPSSMYASLGERVTITCKASQDINSYLSWFQQKSGKSPKTLIYRANRLVDGVPSRFSGSGSGQDYSLTISSLEYEDMGIYYCLQYVEFPLTFGAGTKLELK | 235 | 7 | – |
| 405B8H3 (LAG-3 mouse-human chimeric antibody) (antibody, V domains shown, also called mouse-human chimeric antibody 405B8H3) VH: QVQLQQSGAELVRPGASVTLSCKASGYTFTDYEMHWVKQTPVHGLEWIGATDPETGNSAYNQKFKGKAIMTADKSSSTAYMELRSLTSEDSAVYYCISTGWNDWGQGTSLTVSS VL: DIKMTQSPSSMYASLGERVTITCKASQDINSYLSWFQQKPGKSPKTLIYRADRLLDGVPSRFSGSGSGQDYSLTISSLEYGDMGIYYCLQYDEFPYTFGGGTKLEIK | – | – | 0.15 |
| 409B11E12 (LAG-3 mouse-human chimeric antibody) (antibody, V domains shown) VH: QVQLQQSGAELVRPGASVTLSCKASGYTFTDYEMHWVKQTTVHGLEWIGATDPETSYSAYNQKFKGKAILTADKSSSTAYMELRSLTSEDSAVYYCIATGWNDWGQGTSLTVSS VL: DLKMTQSPSSMYASLGERVTITCKASQDINSYLSWFQQKPGKSPKTLIYRANRLLDGVPSRFSGSGSGQDYSLTISSLEYEDMGIYYCLQYDEFPYTFGGGTKLEIK | – | – | 0.14 |
| 409B11E12 (mouse antibody purified from hybridoma) (antibody, V domains shown, also called mAb104-409B11E12) VH: QVQLQQSGAELVRPGASVTLSCKASGYTFTDYEMHWVKQTTVHGLEWIGATDPETSYSAYNQKFKGKAILTADKSSSTAYMELRSLTSEDSAVYYCIATGWNDWGQGTSLTVSS VL: DLKMTQSPSSMYASLGERVTITCKASQDINSYLSWFQQKPGKSPKTLIYRANRLLDGVPSRFSGSGSGQDYSLTISSLEYEDMGIYYCLQYDEFPYTFGGGTKLEIK | 112 | 15.3 | – |
| 409D4E10 (mouse antibody purified from hybridoma) (antibody, V domains shown, also called mAb112-409D4E10) VH: QVQLQQSGAELVRPGASVTLSCKASGNTFTDYEMHWVKQTPVHGLEWIGATDPETDNTAYNQKFKGKAILTTDKSSSTAYMELRSLTSEDSAVYYCITSGWNDWGQGTSLTVSS VL: DIKMTQSPSSMYASLGERVTITCKASQDINSYLSWFQQKPGKSPKTLIYRANRLLDGVPSRFSGSGSGQDYSLTISSLEYEDMGIYYCLQYNEFPYTFGGGTKLEIK | 123 | 18.2 | – |
| 409D4E10 (LAG-3 mouse-human chimeric antibody) (antibody, V domains shown) VH: QVQLQQSGAELVRPGASVTLSCKASGNTFTDYEMHWVKQTPVHGLEWIGATDPETDNTAYNQKFKGKAILTTDKSSSTAYMELRSLTSEDSAVYYCITSGWNDWGQGTSLTVSS VL: DIKMTQSPSSMYASLGERVTITCKASQDINSYLSWFQQKPGKSPKTLIYRANRLLDGVPSRFSGSGSGQDYSLTISSLEYEDMGIYYCLQYNEFPYTFGGGTKLEIK | – | – | 0.18 |
